The values below come from patent publication US20020039776.

Chain of GST-EZH2(382-747) (chain, as listed by the source): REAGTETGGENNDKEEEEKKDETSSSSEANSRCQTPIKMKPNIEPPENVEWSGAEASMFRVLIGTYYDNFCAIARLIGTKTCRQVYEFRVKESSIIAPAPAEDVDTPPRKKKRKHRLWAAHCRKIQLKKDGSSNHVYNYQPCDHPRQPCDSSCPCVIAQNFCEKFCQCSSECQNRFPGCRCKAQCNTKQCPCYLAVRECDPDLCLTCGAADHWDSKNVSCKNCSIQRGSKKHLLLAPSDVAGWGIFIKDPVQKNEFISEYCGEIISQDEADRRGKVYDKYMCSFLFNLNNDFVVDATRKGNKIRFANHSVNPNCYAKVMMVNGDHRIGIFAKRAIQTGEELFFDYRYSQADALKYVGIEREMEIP

The test system of this data set is free histones (mixture of H1, H3, H2B, H2A and H4; Boehringer Mannheim).
On to GST-EZH2(382-747), for which the HMTase activity result is listed as “had undetectable HMTase activity towards free histones”. GST-HRX(3643-3969): the HMTase activity result was “had undetectable HMTase activity towards free histones”. With GST-Suv39h2(157-477) the entry was “The SU(VAR)3-9 family members assayed, SUV39H1, Suv39h2 and CLR4, displayed HMTase activity”.
